Measurements published in US20020115613A1, “Treatment of prostate cancer” (priority 2001, published 2002).

Tests used:
Format in all cases: cell-based
LNCaP C4-2 cells [1] = experiment: MTT assay (cell survival); details: for cell survival: 400 ng/ml TRAIL and/or 10 μM Mifepristone for three days, FIG. 1B
Method: (§1) LNCaP were obtained from American Type Culture Collection (Rockville, Md.) and LNCaP C4-2 cells were purchased from Urocor Inc., Oklahoma City, Okla. Cells were grown in RPMI 1640 medium supplemented with 10% (LNCaP) or 5% (LNCaP C4-2) fetal bovine serum (Hyclone, Logan, Utah) and grown in the presence of 5% CO2 at 37° C. Cells were treated with 10 μM Mifepristone (Sigma, St. Louis, Mo.) for three days or with increasing concentrations (from 200 ng/ml to 600 ng/ml) of TRAIL (Biomol Research Laboratories, Inc., Plymouth Meetings, Pa.) for varying time intervals 2, 4, 6, 8, 16, 20 and 24 hours (hr). Thus, for treatment with Mifepristone, cells were treated with Mifepristone for three days and then some cells treated (without washing) with TRAIL for indicated periods. Upon completion of the experiment, cells were harvested, and total proteins, cytosol or mitochondrial fractions were isolated as described below. At least three experiments were conducted with a minimum of four plates per treatment per experiment. Two methods were used to measure induction of apoptosis by drug treatment: the MTT assay and the Apoptosense assay. The MTT assay measures mitochondrial enzyme activity and is indicative of the number of surviving cells. […] Cells were seeded in 96-well plates (6000 cells/well) and treatment was started 24 hr after seeding the cells. After completion of the treatment, cells were incubated at 37° C. with the MTT reagent for 3 hr and processed according to manufacturers instructions (Promega Corporation, Madison, Wis.). Color development was measured at 490 nm on a Spectra MAX 340 microplate reader (Molecular Devices, Menlo Park, Calif.).

LNCaP cells [2] = experiment: MTT assay (cell survival); details: for cell survival: 400 ng/ml TRAIL and/or 10 μM Mifepristone for three days, FIG. 1A
Method: as §1

LNCaP C4-2 cells [3] = experiment: Caspase-9 colorimetric activity assay; details: FIG. 4B
Method: (§2) LNCaP were obtained from American Type Culture Collection (Rockville, Md.) and LNCaP C4-2 cells were purchased from Urocor Inc., Oklahoma City, Okla. Cells were grown in RPMI 1640 medium supplemented with 10% (LNCaP) or 5% (LNCaP C4-2) fetal bovine serum (Hyclone, Logan, Utah) and grown in the presence of 5% CO2 at 37° C. Cells were treated with 10 μM Mifepristone (Sigma, St. Louis, Mo.) for three days or with increasing concentrations (from 200 ng/ml to 600 ng/ml) of TRAIL (Biomol Research Laboratories, Inc., Plymouth Meetings, Pa.) for varying time intervals 2, 4, 6, 8, 16, 20 and 24 hours (hr). Thus, for treatment with Mifepristone, cells were treated with Mifepristone for three days and then some cells treated (without washing) with TRAIL for indicated periods. Upon completion of the experiment, cells were harvested, and total proteins, cytosol or mitochondrial fractions were isolated as described below. At least three experiments were conducted with a minimum of four plates per treatment per experiment. As caspase-9 is a key protein in the formation of apoptosome, assays were performed to determine the activity of caspase-9. Caspase-9 activity was assayed using a colorimetric substrate, […] with a kit from Chemicon International, Inc. (Temecula, Calif.). Cleavage of the C-terminal peptide bond by the enzyme released p-nitroaniline, which was measured at 405 nm. Pure recombinant human caspase-9 was utilized as a positive control.

LNCaP cells [4] = experiment: Caspase-9 colorimetric activity assay; details: FIG. 4A
Method: as §2

LNCaP C4-2 cells [5] = experiment: Apoptosense assay (M30 ELISA, cleaved cytokeratin 18)
Method: LNCaP were obtained from American Type Culture Collection (Rockville, Md.) and LNCaP C4-2 cells were purchased from Urocor Inc., Oklahoma City, Okla. Cells were grown in RPMI 1640 medium supplemented with 10% (LNCaP) or 5% (LNCaP C4-2) fetal bovine serum (Hyclone, Logan, Utah) and grown in the presence of 5% CO2 at 37° C. Cells were treated with 10 μM Mifepristone (Sigma, St. Louis, Mo.) for three days or with increasing concentrations (from 200 ng/ml to 600 ng/ml) of TRAIL (Biomol Research Laboratories, Inc., Plymouth Meetings, Pa.) for varying time intervals 2, 4, 6, 8, 16, 20 and 24 hours (hr). Thus, for treatment with Mifepristone, cells were treated with Mifepristone for three days and then some cells treated (without washing) with TRAIL for indicated periods. Upon completion of the experiment, cells were harvested, and total proteins, cytosol or mitochondrial fractions were isolated as described below. At least three experiments were conducted with a minimum of four plates per treatment per experiment. Two methods were used to measure induction of apoptosis by drug treatment: the MTT assay and the Apoptosense assay. The MTT assay measures mitochondrial enzyme activity and is indicative of the number of surviving cells. […] Cells were plated in petri dishes and after completion of the treatment, cells were harvested and total protein extracted as described below. […] Color was developed by adding tetramethylbenzidine solution and the optical density of the bound antibody was determined at 450 nm on a Spectra MAX 340 microplate reader (Molecular Devices, Menlo Park, Calif.). Standard solution supplied by the supplier was used for generating standard curves.

[6] = 200 ng/ml TRAIL compared with 400 ng/ml, data not shown
[7] = 600 ng/ml TRAIL compared with 400 ng/ml, data not shown

Molecule | cell survival (LNCaP C4-2 cells [1]) | cell survival (LNCaP cells [2]) | caspase-9 activity (LNCaP C4-2 cells [3]) | caspase-9 activity (LNCaP cells [4]) | M30 activity (in words) (LNCaP C4-2 cells [5]) | cell death at lower concentration of TRAIL (LNCaP C4-2 cells [1]; [6]) | apoptosis at higher dose of TRAIL (LNCaP C4-2 cells [1]; [7]) | cell death at lower concentration of TRAIL (LNCaP cells [2]; [6]) | apoptosis at higher dose of TRAIL (LNCaP cells [2]; [7]) | M30 activity (LNCaP C4-2 cells [5]; between 8 hr to 20 hr treatment, FIG. 1D)
CC#C[C@]1(O)CC[C@H]2[C@@H]3CCC4=CC(=O)CCC4=C3[C@@H](c3ccc(N(C)C)cc3)C[C@@]21C [Mifepristone] | little effect on survival | little effect on survival | induced caspase-9 activity | induced caspase-9 activity | lower M30 activity |  |  |  |  | 
Tumor necrosis factor α—Related Apoptosis Inducing Ligand (protein, UniProt P50591 1-281, looked up, 281 amino acid type II transmembrane protein of the tumor necrosis factor α family; purchased from Biomol) Tumor necrosis factor ligand …: MAMMEVQGGPSLGQTCVLIVIFTVLLQSLCVAVTYVYFTNELKQMQDKYSKSGIACFLKEDDSYWDPNDEESMNSPCWQVKWQLRQLVRKMILRTSEETISTVQEKQQNISPLVRERGPQRVAAHITGTRGRSNTLSSPNSKNEKALGRKINSWESSRSGHSFLSNLHLRNGELVIHEKGFYYIYSQTYFRFQEEIKENTKNDKQMVQYIYKYTSYPDPILLMKSARNSCWSKDAEYGLYSIYQGGIFELKENDRIFVSVTNEHLIDMDHEASFFGAFLVG | reduced cell survival as early as 8 hr | did not alter cell survival significantly | induced caspase-9 activity | induced caspase-9 activity |  | lower cell death | did not increase apoptosis significantly | lower cell death | did not increase apoptosis significantly | 1.4-2.0 U/ug
